The experiment addresses BD1-EGFP-HOTag6 (UniProt O60885 44-168). The experiment is described as follows: cell-based or functional assay.

B1: CRBN-EGFP-HOTag3 (other, not shown: large carriers)
chain: MAGEGDQQDAAHNMGNHLPLLPAESEEEDEMEVEDQDSKEAKKPNIINFDTSLPTSHTYLGADMEEFHGRTLHDDDSCQVIPVLPQVMMILIPGQTLPLQLFHPQEVSMVRNLIQKDRTFAVLAYSNVQEREAQFGTTAEIYAYREEQDFGIEIVKVKAIGRQRFKVLELRTQSDGIQQAKVQILPECVLPSTMSAVQLESLNKCQIFPSKPVSREDQCSYKWWQKYQKRKFHCANLTSWPRWLYSLYDAETLMDRIKKQLREWDENLKDDSLPSNPIDFSYRVAACLPIDDVLRIQLLKIGSAIQRLRCELDIMNKCTSLCCKQCQETEITTKNEIFSLSLCGPMAAYVNPHGYVHETLTVYKACNLNLIGRPSTEHSWFPGYAWTVAQCKICASHIGWKFTATKKDMSPQKFWGLTRSALLPTIPDTEDEISPDKVILCLGEIAKSLKEIAKSLKEIAWSLKEIAKSLKG
Regarding B1, the “brightness of the EGFP droplets after ARV-825” value was found to be 10 fold.
